The values below come from PMC8863163 (Research Square, 2022).

The target of this test is T1, SARS-CoV-2 nsp12 (RNA-dependent RNA polymerase with N-terminal NiRAN domain) (SARS-CoV-2, UniProt P0DTD1).
T1 construct: also called RdRp; WT nsp12
Description: cryo-EM structure. The following applies: both partners purified.

B1: SARS-CoV-2 nsp9 with native N-terminus (natural protein)
chain: NNELSPVALRQMSCAAGTTQTACTDDNALAYYNTTKGGRFVLALLSDLQDLKWARFPKSDGTGTIYTELEPPCRFVTDTPKGPKVKYLYFIKGLNNLNRGMVLGSLAATVRLQ
notes: also called native nsp9
B1: the binding result was “binds”.
